System: MS2 coat protein
Assay: apparent KD of MS2 coat protein; designed switch direction (-1 OFF switch, 1 ON switch): -1; higher = weaker reporter binding
How it was run: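 Stalled E. coli RNA polymerase transcribed designed RNA switches on Illumina chips, which were then titrated with SNAP-549-labelled MS2 coat protein, doubling from 0.7 or 1.5 nM to 3 µM. Steps lasted from 0.8–1.5 h at the lowest concentration to 10–20 min at the highest. The apparent KD is each design's median over clusters of curve-fitted normalised fluorescence.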

[1] = input ligand: microRNA oligo, concentration not stated
[2] = Eterna round: R95, input ligand: microRNA oligo, concentration not stated
[3] = Eterna round: R95, input ligand: FMN 200 uM
[4] = Eterna round: R95, input ligand: none

Sequence | apparent KD of MS2 coat protein (input ligand: FMN 200 uM) [µM] | apparent KD of MS2 coat protein (input ligand: none) [µM] | apparent KD of MS2 coat protein [2] [µM] | also measured
CGGGCGCGAGGAUAUACAUGAGGAUCACCCAUGUAACGGCGAGCAAUGUUUGUUGCGUGUAGAAGGUGUGUUUG [-20.1, -18.7 kcal, A 27%] (Eterna round: R97, puzzle: Exclusion 3) | 0.112 | 0.155 |  | 
AACGUACAGCAAAGCUGUACGCGUACAUGAGGAUCACCCAUGUAGGAUAUGGUAGGCAAAGCUUACUAGAAGGAUAGAGUGAUC [Mat - Exclusion NG 3 - Mod of JL - D77] (Eterna round: R96, puzzle: Exclusion NG 3) | 0.497 | 0.333 |  | apparent KD of MS2 coat protein [1]: 0.358 µM
CCGGCUUAGGAGGAUAUAGGAGUCGAUAGACACCUAGAAGGCCUAACAUGAGGAUCACCCAUGUGUCCUACCGG [Fiskers Ex 6 - 99] (puzzle: Exclusion 6) |  |  | 0.0163 | 
GACCUCCCUGUAAGGAUAUCCAUGCAUCAAAGCAUGGAGAAGGUACAUGAGGAUCACCCAUGUCACCCGCGUUA (Eterna round: R97, puzzle: Brourd's mod of Exclusion 4) | 0.0207 | 0.015 |  | 
GCAUGUUGGUAGGAUAUGCAGCGGAAACCGCUAGUAGAAGGAUUGACAUGAGGAUCACCCAUGUGAACCGAAGG [Arcelace] (Eterna round: R97, puzzle: Exclusion 6) | 0.186 | 0.0404 |  | 
GAAAAGGUAGGAUAUACGAAAUAAAAGGGUAGAAAAAAAACACAUGAGGAUCACCCAUGUAGAAGGACCAAAAG [salish99_ex2_r3_084] (puzzle: Exclusion 2) |  |  | 0.0155 | apparent KD of MS2 coat protein [3]: 0.0529 µM; apparent KD of MS2 coat protein [4]: 0.0347 µM
UAGCAUUGCCUUUGGUAGUGCUUUACAUGAGGAUCACCCAUGUAGGAUAUGGUAGGCUUUGCUUACCAGAAGGACAUGAUAAUU [JL ENG3 1.04] (Eterna round: R96, puzzle: Exclusion NG 3) |  |  |  | apparent KD of MS2 coat protein [1]: 0.0523 µM
AUCUCUCGUGUUAGGAUAUCCAGUUAGUUCGUGCGGGAGAAGGAACAUGAGGAUCACCCAUGUAAACAAAUCGC [BmEX4 B.21] (Eterna round: R97, puzzle: Brourd's mod of Exclusion 4) | 0.0521 | 0.0185 |  | 
CGUGACUCAGGAUAUCUAUAGUGUCACAUGAGGAUCACCCAUGUCCAGCGAAAGCUGGAGGGAGAAGGGAGUCACG [Fiskers Ex 5 - 43] (puzzle: Exclusion 5) |  |  | 0.0905 | 
GUUAUUUCAGGAUAUACAUGAGGAUCACCCAUGUAAGCAAGGUGCCUGCAUCCCGACUGUAGAAGGGAAAUGAG [Eternabot (L2) Solution 61] (Eterna round: R97, puzzle: Exclusion 3) | 0.0299 | 0.0285 |  | 
ACAUGAGGAUCACCCAUGUUUGGCUGGUUUUCUCCGGCUGUCGAGGAUAUAGUACGGUAUCCGCGCUAGAAGGUGAGGGUCGGC [Aenatbe mod 2] (Eterna round: R96, puzzle: Exclusion NG 3) | 0.0171 | 0.019 |  | apparent KD of MS2 coat protein [1]: 0.0122 µM
CAUUUGUGAGGAUAUCAGGUGUGCUAGCGUACUGGUACAUCUGAGAAGGCACAUGAGGAUCACCCAUGUUCCUU [Mat - Exclusion 4 - Mod of JL - D36] (puzzle: Exclusion 4) |  |  | 0.0128 | 
UCCCUGUCAGGAUAUACAUGAGGAUCACCCAUGUCUCUCCGACACGGGAAAAGGAACUGUAGAAGGGACAGGAU [Xezaeseris] (puzzle: Exclusion 3) |  |  | 0.0123 | apparent KD of MS2 coat protein [3]: 0.0196 µM; apparent KD of MS2 coat protein [4]: 0.0152 µM
UCAGGAGCAGGAUAUGCAAUCGUGCUUCGGCACGUAAGGUCACAUGAGGAUCACCCAUGUAGAAGGGCUCCUGA [E2/4-D2] (Eterna round: R97, puzzle: Exclusion 2) | 0.0384 | 0.0185 |  | 
CUUUAGUGAGGAUAUCAGUAGUAGAACAAUAGUACUACUACUGAGAAGGCACAUGAGGAUCACCCAUGUUCCUC [Fiskers Ex 4 Super stable 44 mod 8] (puzzle: Exclusion 4) |  |  | 0.0345 | 
UAACUGCUCGUCUUGUUAAACAUGAGGAUCACCCAUGUCAGCCUGUAAGGGUACGGUAGAUAGGCCCGAUUGCAUGA [Eternabot (L1) Solution 11] (Eterna round: R97, puzzle: Sensor, turn-off variant 1) | 0.0269 | 0.0312 |  | 
UGAGACUGAGGAUAUACUGGCCCAUAAAGUGGGUCGUGGGUACAUGAGGAUCACCCAUGUAGAAGGCAGCCUCG [Omei Repeat Sequence v6] (Eterna round: R97, puzzle: Exclusion 2) | 0.656 | 0.0554 |  | 
GGGUAGUGAGGAUAUCGUUGUUAGGAGGAGUAGGUAGGAGGCGAGAAGGCACAUGAGGAUCACCCAUGUAUGAG [JR_Exclu4_Sub065] (puzzle: Exclusion 4) |  |  | 0.0255 | 
CGUCUGUUAGGAUAUGACCCGCGUACCGUGUCGAGCCGGGUUCAGAAGGAACAUGAGGAUCACCCAUGUGAGAA [Eternabot (L1) Solution 12] (Eterna round: R97, puzzle: Exclusion 4) | 0.163 | 0.0273 |  | 
UAAUGCAAGUAAAGAUCUUACAUGAGGAUCACCCAUGUGCUCGUCUUAUAAAGUACUAUCACGAAAGUGAUAGUACA [Mat - Sensor v3 - turn-off var 1 - Eli Mod - D89] (puzzle: Sensor v3, turn-off variant 1) |  |  | 0.119 | apparent KD of MS2 coat protein [3]: 0.0182 µM; apparent KD of MS2 coat protein [4]: 0.018 µM
CAACAUGGACCUCGCUCCGACAUGAGGAUCACCCAUGUUGGAACCUUACUGGCGUCGAGUGUUGCUCGUCUUACCGU [Eternabot (Original) Solution 10] (Eterna round: R97, puzzle: Sensor, turn-off variant 1) | 0.189 | 0.268 |  | 
CACAUGAGACGGAGAUCCAACAUGAGGAUCACCCAUGUCUCAAAAGCUUUUUGCUUGUCUUAUCCUCCUCUCGUGAC [Mat - Sensor, turn-off var - Eli Mod - D61] (Eterna round: R97, puzzle: Sensor, turn-off variant 1) | 0.0478 | 0.0467 |  | 
UGGGUUCCAAGUGAGUCAGACAUGAGGAUCACCCAUGUAUAGCAAGCCUUAGCCGUUCGAGCAAAUGGUCUCGUCAG [Eternabot (Original) Solution 36] (Eterna round: R97, puzzle: Sensor, turn-off variant 1) | 0.384 | 1.04 |  | 
